The subject of one data set is BATF;JUNB (human;human). The data set can be described thus: Spec-seq (EMSA). The note with it: no IRF; 100 nM BATFx-JUNB, 150 nM IRF, 1 uM dsDNA library; 50 mM K acetate, 20 mM Tris-acetate, 10 mM Mg acetate, 100 ug/ml BSA, pH 7.9 (25 C), 10% glycerol; 30 min on …. On the technique in general: Mobility shift assays separate free from complexed probe on a gel.
For data set [1], the system named is BATF2 (bZIP);JUNB (human;human). The data set can be described thus: Spec-seq (EMSA). As to conditions: 100 nM BATFx-JUNB, 150 nM IRF, 1 uM dsDNA library, 50 mM K acetate, 20 mM Tris-acetate, 10 mM Mg acetate, 100 ug/ml BSA, pH 7.9 (25 C), 10% glycerol, 30 min on ….
A further data set deals with BATF3;JUNB (human;human). Put plainly: Spec-seq (EMSA). As to conditions: no IRF; 100 nM BATFx-JUNB, 150 nM IRF, 1 uM dsDNA library; 50 mM K acetate, 20 mM Tris-acetate, 10 mM Mg acetate, 100 ug/ml BSA, pH 7.9 (25 C), 10% glycerol; 30 min on ….
The subject of data set [2] is BATF;JUNB;IRF4 (human;human;human). The data set can be described thus: Spec-seq (EMSA). As to conditions: reference; 100 nM BATFx-JUNB, 150 nM IRF, 1 uM dsDNA library; 50 mM K acetate, 20 mM Tris-acetate, 10 mM Mg acetate, 100 ug/ml BSA, pH 7.9 (25 C), 10% glycerol; 30 min on ….
For data set [3], the system named is BATF2 (bZIP);JUNB;IRF4 (human;human;human). Put plainly: Spec-seq (EMSA). The note with it: reference; 100 nM BATFx-JUNB, 150 nM IRF, 1 uM dsDNA library; 50 mM K acetate, 20 mM Tris-acetate, 10 mM Mg acetate, 100 ug/ml BSA, pH 7.9 (25 C), 10% glycerol; 30 min on ….
For data set [4], the system named is BATF3;JUNB;IRF4 (human;human;human). Put plainly: Spec-seq (EMSA). The note with it: reference; 100 nM BATFx-JUNB, 150 nM IRF, 1 uM dsDNA library; 50 mM K acetate, 20 mM Tris-acetate, 10 mM Mg acetate, 100 ug/ml BSA, pH 7.9 (25 C), 10% glycerol; 30 min on ….
For data set [5], the system named is BATF;JUNB;IRF8 (human;human;mouse). Put plainly: Spec-seq (EMSA). The note with it: reference; 100 nM BATFx-JUNB, 150 nM IRF, 1 uM dsDNA library; 50 mM K acetate, 20 mM Tris-acetate, 10 mM Mg acetate, 100 ug/ml BSA, pH 7.9 (25 C), 10% glycerol; 30 min on ….
The subject of data set [6] is BATF2 (bZIP);JUNB;IRF8 (human;human;mouse). Put plainly: Spec-seq (EMSA). The note with it: reference; 100 nM BATFx-JUNB, 150 nM IRF, 1 uM dsDNA library; 50 mM K acetate, 20 mM Tris-acetate, 10 mM Mg acetate, 100 ug/ml BSA, pH 7.9 (25 C), 10% glycerol; 30 min on ….
The test system of data set [7] is BATF3;JUNB;IRF8 (human;human;mouse). The data set can be described thus: Spec-seq (EMSA). As to conditions: reference; 100 nM BATFx-JUNB, 150 nM IRF, 1 uM dsDNA library; 50 mM K acetate, 20 mM Tris-acetate, 10 mM Mg acetate, 100 ug/ml BSA, pH 7.9 (25 C), 10% glycerol; 30 min on ….
The next data set has as its target T1, IRF8 (full length mouse) (mouse, UniProt P23611 1-424).
T1 construct: IRF8 (interferon regulatory factor 8), mouse, full length; also called IRFx; source: E. coli BL21(DE3), purified (Strep-Tactin Superflow), strep-tag cleaved off by thrombin; not shown: Strep-tag, N-terminal, cleaved
T1 sequence (looked up): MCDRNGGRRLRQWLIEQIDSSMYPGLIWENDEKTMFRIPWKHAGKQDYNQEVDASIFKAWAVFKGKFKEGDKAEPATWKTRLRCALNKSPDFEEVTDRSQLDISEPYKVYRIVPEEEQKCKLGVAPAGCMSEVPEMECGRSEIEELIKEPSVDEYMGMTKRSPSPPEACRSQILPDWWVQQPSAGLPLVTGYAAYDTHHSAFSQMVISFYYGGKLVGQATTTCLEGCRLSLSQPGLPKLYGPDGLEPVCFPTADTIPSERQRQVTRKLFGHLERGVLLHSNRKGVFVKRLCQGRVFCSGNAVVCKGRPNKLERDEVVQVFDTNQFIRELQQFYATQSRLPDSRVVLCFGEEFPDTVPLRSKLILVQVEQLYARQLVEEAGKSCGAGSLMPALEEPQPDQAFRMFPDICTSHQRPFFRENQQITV
The data set can be described thus: native gel or EMSA; complex formed on a dsDNA library: 100 nM BATFx-JUNB heterodimer, 150 nM IRF protein, 1 uM dsDNA library in 1x NEB Cutsmart buffer (pH 7.9) with 10% glycerol, 30 min on ice; native 9% PAGE in Tris/Glycine at 4 °C. The note with it: both partners purified.

In another data set the target is T2, IRF4 (full length human) (human, UniProt Q15306 1-451).
T2 construct: IRF4 (interferon regulatory factor 4), human, full length; also called IRFx; source: E. coli BL21(DE3), purified (Strep-Tactin Superflow), strep-tag cleaved off by thrombin; not shown: Strep-tag, N-terminal, cleaved
T2 sequence (looked up): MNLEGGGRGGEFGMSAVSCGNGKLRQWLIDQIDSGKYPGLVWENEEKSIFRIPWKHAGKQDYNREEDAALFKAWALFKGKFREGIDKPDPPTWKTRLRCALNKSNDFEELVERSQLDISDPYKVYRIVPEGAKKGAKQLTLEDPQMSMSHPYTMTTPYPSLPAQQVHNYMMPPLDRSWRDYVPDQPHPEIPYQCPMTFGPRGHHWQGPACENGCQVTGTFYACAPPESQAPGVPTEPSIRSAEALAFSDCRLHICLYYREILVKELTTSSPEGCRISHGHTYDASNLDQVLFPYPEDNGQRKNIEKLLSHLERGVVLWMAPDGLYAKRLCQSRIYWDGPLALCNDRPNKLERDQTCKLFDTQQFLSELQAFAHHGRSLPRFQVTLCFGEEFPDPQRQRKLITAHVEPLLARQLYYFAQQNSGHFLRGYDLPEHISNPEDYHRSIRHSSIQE
The description is as above. As to conditions: both partners purified.

Consider CRE (TGACGTCA), for which the binding signal (kT (-ln bound/unbound)) with BATF;JUNB (human;human) is -1.05; in data set [1] (no IRF), -1.32; in the data set with BATF3;JUNB (human;human), -1.75.

With TRE-0sp (TGAGTCAT), the binding signal (kT vs TRE-0sp) in [2], in data set [3], in data set [4], in data set [5], in data set [6] and in [7] was 0 in each case. Also, the results for the binding signal (kT (-ln bound/unbound)) (in the data set with BATF;JUNB (human;human); in [1]) were -1.05 and -0.903, respectively.

For the molecule TRE-1sp (ATGAGTCA), the binding signal (kT (-ln bound/unbound)) in the data set with BATF;JUNB (human;human) was -1.25; in data set [1] it was -1.01.

B1: BATF–JUNB hetero-dimer (complex, human)
chain 1: MPHSSDSSDSSFSRSPPPGKQDSSDDVRRVQRREKNRIAAQKSRQRQTQKADTLHLESEDLEKQNAALRKEIKQLTEELKYFTSVLNSHEPLCSVLAASTPSPPEVVYSAHAFHQPHVSSPRFQP
chain 2: KMNHVTPPNVSLGATGGPPAGPGGVYAGPEPPPVYTNLSSYSPASASSGGAGAAVGTGSSYPTTTISYLPHAPPFAGGHPAQLGLGRGASTFKEEPQTVPEARSRDATPPVSPINMEDQERIKVERKRLRNRLAATKCRKRKLERIARLEDKVKTLKAENAGLSSTAGLLREQVAQLKQKVMTHVSNGCQLLLGVKGHAF
notes: BATF, human, full length; Heterodimer formed by co-expression before purification; also called BATFx–JUNB; source: SHuffle T7 Express E. coli, co-expressed, purified (Ni-NTA agarose), mCherry cleaved off with ProTEV Plus; not shown: mCherry, N-terminal, cleaved
On to B1, for which the binding result in the data set with IRF8 (full length mouse) and with IRF4 (full length human) was “binds” each time.

B2: BATF2–JUNB hetero-dimer (complex, human)
chain 1: MHLCGGNGLLTQTDPKEQQRQLKKQKNRAAAQRSRQKHTDKADALHQQHESLEKDNLALRKEIQSLQAELAWWSRTLHVHERLCPMDCASCSAPGLLGCWDQAEGLLGPGPQGQHGCREQLELFQTPGSCYPAQPLSPGPQP
chain 2: KMNHVTPPNVSLGATGGPPAGPGGVYAGPEPPPVYTNLSSYSPASASSGGAGAAVGTGSSYPTTTISYLPHAPPFAGGHPAQLGLGRGASTFKEEPQTVPEARSRDATPPVSPINMEDQERIKVERKRLRNRLAATKCRKRKLERIARLEDKVKTLKAENAGLSSTAGLLREQVAQLKQKVMTHVSNGCQLLLGVKGHAF
notes: Heterodimer formed by co-expression before purification; also called BATFx–JUNB; source: SHuffle T7 Express E. coli, co-expressed, purified (Ni-NTA agarose), mCherry cleaved off with ProTEV Plus; not shown: mCherry, N-terminal, cleaved
As to B2, the binding result with IRF8 (full length mouse) and with IRF4 (full length human) was “binds” in each case.

The values are drawn from paper PMC5869772, “Quantitative profiling of BATF family proteins/JUNB/IRF hetero-trimers using Spec-seq” (BMC Molecular Biology, 2018).
